Source: publication PMC11733250

Molecular target: T1, FKBP51, Q13451
T1 chain: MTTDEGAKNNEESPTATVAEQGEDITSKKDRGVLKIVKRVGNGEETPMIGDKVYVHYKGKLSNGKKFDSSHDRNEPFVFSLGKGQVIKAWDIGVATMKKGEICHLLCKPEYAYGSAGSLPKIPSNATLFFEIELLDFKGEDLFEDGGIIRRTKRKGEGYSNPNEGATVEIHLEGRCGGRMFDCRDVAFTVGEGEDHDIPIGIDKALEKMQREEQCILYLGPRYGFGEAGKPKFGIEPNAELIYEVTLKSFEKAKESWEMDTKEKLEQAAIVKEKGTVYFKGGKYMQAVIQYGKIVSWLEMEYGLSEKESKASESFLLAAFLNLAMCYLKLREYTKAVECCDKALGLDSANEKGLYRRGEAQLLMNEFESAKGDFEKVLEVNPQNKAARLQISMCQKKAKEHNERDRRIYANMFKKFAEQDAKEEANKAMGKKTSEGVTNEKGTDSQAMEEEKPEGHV
Experiment: ITC; 50 µM FKBP51 in the cell titrated with 750 µM p23; 25 °C; 25 mM HEPES, 10 mM KCl, 5 mM MgCl2, 1 mM DTT, pH 7.2; one set of binding sites
Details: remark: other sources report otherwise

- Kd: 67 µM
B1: p23 wild-type (human co-chaperone p23, 160 amino acids), Q15185 1-160 (natural protein)
chain: MQPASAKWYDRRDYVFIEFCVEDSKDVNVNFEKSKLTFSCLGGSDNFKHLNEIDLFHCIDPNDSKHKRTDRSILCCLRKGESGQSWPRLTKERAKLNWLSVDFNNWKDWEDDSDEDMSNFDRFSEMMNNMGGDEDVDLPEVDGADDDSQDSDDEKMPDLE
